According to patent publication US20050153923A1, “Targeted drug delivery using EphA2 or EphA4 binding moieties” (priority 2003, published 2005):
“Also recorded” adds a separate entry of the source.

How the values were obtained:
EphA2 [1] = experiment: EphA2 tyrosine phosphorylation in MDA-MB-231 cells (IP/Western blot); assay type: cell-based; settings: MDA-MB-231 monolayers; single dose 5 μg/ml, 37° C.
Protocol: Monolayers of MDA-MB-231 cells were incubated in the presence of a single dose of 5 μg/ml (A, C) Eph099B-208.261 or (B, D) EA2 for the indicated time at 37° C. Cell lysates were then immunoprecipitated with an EphA2-specific antibody, resolved by SDS-PAGE and subjected to Western blot analysis with a phosphotyrosine-specific antibody (A, B). The membranes were stripped and re-probed with the EphA2-specific antibody used in the immunoprecipitation as a loading control (C, D).
(§1) Monolayers of MDA-MB-231 cells were incubated in the presence of a single dose of 5 μg/ml Eph099B-233.152 at 37° C. Cell lysates were then immunoprecipitated with D7 (an EphA2-specific antibody), resolved by SDS-PAGE and subjected to Western blot analysis with (A) a phosphotyrosine-specific antibody or (B) an EphA2-specific antibody.
EphA2 antibodies promoted tyrosine phosphorylation and degradation of EphA2 in MDA-MB-231 cells. Monolayers of cells were incubated in the presence of EphA2 agonistic antibodies or control at 37° C. […]
(§2) Western blot analyses and immunoprecipitations were performed as described previously (Zantek et al., 1999, Cell Growth Diff. 10: 629-38, which is incorporated by reference in its entirety). […] Antibody binding was detected by enhanced chemiluminescence (Pierce, Rockford, Ill.) and autoradiography (Kodak X-OMAT; Rochester, N.Y.).

MDA-MB-231 tumor cells = experiment: Inhibition of colony formation in soft agar; assay type: cell-based; settings: single dose 5 μg/ml purified antibody, FIG. 5
Protocol: A single dose of 5 μg/ml of Eph099B-208.261 (black bar), EA2 (white bar) purified EphA2 antibodies or a negative control antibody, 1A7 (gray bar) were incubated with malignant MDA-MB-231 tumor cells for the indicated time at 37° C. in soft agar. Results are reported as colonies per high-powered field (HPF).
Briefly, cells were suspended in soft agar for 7 days at 37° C. in the presence of purified antibody or control solution (PBS). Antibodies were administered at the time of suspension in both bottom and top agar solutions. Colony formation was scored microscopically using an Olympus CK-3 inverted phase-contrast microscope outfitted with a 40× objective. Clusters containing at least three cells were scored as a positive.

EphA2-Fc [2] = biological target: T1, EphA2-Fc (Homo sapiens, UniProt P29317); experiment: BIACORE surface plasmon resonance Koff measurement on immobilized EphA2-Fc; assay type: binding; settings: FIG. 15
T1 construct: consisted of the extracellular domain of human EphA2 linked to human immunoglobulin
T1 sequence (P29317 24-537 limits assumed): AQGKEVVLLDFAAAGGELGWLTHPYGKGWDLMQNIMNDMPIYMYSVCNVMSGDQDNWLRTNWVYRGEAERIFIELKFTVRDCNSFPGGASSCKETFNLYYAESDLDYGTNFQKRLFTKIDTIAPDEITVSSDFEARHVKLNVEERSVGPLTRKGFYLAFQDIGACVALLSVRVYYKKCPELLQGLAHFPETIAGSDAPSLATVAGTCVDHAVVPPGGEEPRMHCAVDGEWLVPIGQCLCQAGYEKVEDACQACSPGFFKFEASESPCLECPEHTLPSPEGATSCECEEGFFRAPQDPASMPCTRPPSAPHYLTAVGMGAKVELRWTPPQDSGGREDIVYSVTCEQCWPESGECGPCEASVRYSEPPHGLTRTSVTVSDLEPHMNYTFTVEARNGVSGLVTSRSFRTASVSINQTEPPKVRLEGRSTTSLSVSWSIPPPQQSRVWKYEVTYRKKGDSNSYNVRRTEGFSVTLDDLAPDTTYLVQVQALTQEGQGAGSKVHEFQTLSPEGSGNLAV
Source text: FIG. 15: Kinetic analysis of EphA2 monoclonal antibodies. BIACORE™ (surface plasmon resonance-based) assays were used to assay the kinetics of EphA2 monoclonal antibody binding to immobilized EphA2-Fc.
The surface plasmon resonance-based BIACORE™ assay was used to measure the Koff rates of the monoclonal antibodies of the invention. IgG present in the hybridoma supernatant was used for measurement. Antibodies with Koff rates of approximately less than 3×10^−3 s^−1 have slow Koff rates. Antibodies with Koff rates of approximately 8×10^−4 s^−1 or less have very slow Koff rates. Antibodies with Koff rates of approximately 9×10^−5 s^−1 or less have ultra slow Koff rates.
EphA2-Fc was immobilize to a surface on a CM5 sensorchip using a standard amine (70 μl of a 1:1 mix of NHS/EDC) coupling chemistry. Briefly, a 400 nM solution of EphA2-Fc in 10 mM NaOAc, pH4, was then injected over the activated surface to a density of 1000-1100 RU's. Unused reactive esters were subsequently “capped” with a 70 μl injection of 1M Et-NH2. Similarly, an activated and “capped” control surface was prepared on the same sensor chip without protein to serve as a reference surface.
A 250 μl injection of each of the EphA2 hybridoma supernatants was made over both the EphA2-Fc and control surfaces, and the binding responses were recorded. These supernatants were used undiluted. […]

cancer cells = experiment: Elimination of cancer cell colonies already formed in soft agar (antibody added on third day); assay type: cell-based; settings: data not shown
Source text: Assay methods were similar to those described above except that antibodies were not added to the cancer cells until the third day of growth in soft agar.

A549 lung cancer cells = experiment: Tumor growth, A549 cells implanted subcutaneously into athymic mice; assay type: in vivo; settings: 6 mg/kg i.p. twice a week for 3 weeks; FIG. 7C
Protocol: Total tumor volume was determined after sacrifice.

[3] = tested on: MDA-MB-231 breast cancer cells; experiment: Tumor growth and survival, MDA-MB-231 cells implanted subcutaneously into athymic mice; settings: 6 mg/kg i.p. twice a week for 3 weeks vs PBS or 1A7; FIG. 7B, D
Protocol: MDA-MB-231 cells were implanted subcutaneously into athymic mice. […] Tumor growth was assessed and expressed as a ratio of the tumor volume divided by initial tumor volume (100 mm^3).
(D) MDA-MB-231 breast cancer cells were implanted subcutaneously into athymic mice. […] Total tumor volume was determined after sacrifice.
Briefly, 5×10^6 MDA-MB-231 breast cancer cells were implanted subcutaneously into athymic mice. […] Tumor growth was assessed and expressed as a ratio of the tumor volume divided by initial tumor volume (100 mm^3).
5×10^6 MDA-MB-231 breast cancer cells were implanted orthotopically or subcutaneously and 5×10^6 A549 lung cancer cells were implanted subcutaneously into athymic mice. […] Tumor growth was assessed and expressed either as a ratio of the tumor volume divided by initial tumor volume (100 mm^3) or as total tumor volume.

EphA2 [4] = experiment: EphA2 degradation / protein level in MDA-MB-231 cells (Western blot); assay type: cell-based; settings: MDA-MB-231 monolayers; single dose 5 μg/ml, 37° C.
Protocol: Monolayers of MDA-MB-231 cells were incubated in the presence of a single dose of 5 μg/ml (A, C) Eph099B-208.261 or (B, D) EA2 for the indicated time at 37° C. Cell lysates were then resolved by SDS-PAGE and subjected to Western blot analysis with an EphA2-specific antibody (A, B).
as §1
Monolayers of MDA-MB-231 cells were incubated in the presence of EphA2 agonistic antibodies at 37° C. Cell lysates were then resolved by SDS-PAGE and subjected to Western blot analysis with an EphA2-specific antibody (D7). […] Decreased EphA2 expression is due, in part, to deceased mRNA expression levels in response to EphA2 protein degradation caused by agonistic antibody binding (data not shown).
as §2

EphA2-Fc [5] = biological target: T1, EphA2-Fc; experiment: Competitive ELISA: inhibition of labeled EA2 binding to EphA2-Fc; settings: unlabeled antibody, increasing concentrations; FIG. 1
Protocol: The ability of labeled EA2 monoclonal antibody to bind EphA2-Fc was assayed by competitive ELISA in presence of either unlabeled monoclonal antibodies EA2 or Eph099B-208.261. Ratios of unlabeled to labeled antibody used in the assay are indicated on the x-axis.
Supernatants from bulk culture hybridomas were screened for immunoreactivity against EphA2 (Table 9, column 4) using standard molecular biological techniques (e.g., ELISA immunoassay). Supernatants were further screened for the ability to inhibit an EphA2 monoclonal antibody (EA2; ATCC deposit no. PTA-4380; see co-pending U.S. patent application Ser. No. 10/436,783, entitled “EphA2 Agonistic Monoclonal Antibodies and Methods of Use Thereof” filed May 12, 2003) from binding to EphA2. […] Additionally, many of the other antibodies could inhibit EA2 binding to EphA2 as well (Table 9, column 3).

EphA2-Fc [6] = biological target: T2, EphA2-Fc (human, UniProt P29317 24-537); experiment: competitive ELISA on EphA2-Fc, competitor labeled EA2
T2 construct: extracellular domain; also called fusion protein EphA2-Fc; not shown: human IgG1 constant region
T2 sequence (P29317 24-537): as the sequence (P29317 24-537 limits assumed) above

Chain of EphA2 (P29317 24-976): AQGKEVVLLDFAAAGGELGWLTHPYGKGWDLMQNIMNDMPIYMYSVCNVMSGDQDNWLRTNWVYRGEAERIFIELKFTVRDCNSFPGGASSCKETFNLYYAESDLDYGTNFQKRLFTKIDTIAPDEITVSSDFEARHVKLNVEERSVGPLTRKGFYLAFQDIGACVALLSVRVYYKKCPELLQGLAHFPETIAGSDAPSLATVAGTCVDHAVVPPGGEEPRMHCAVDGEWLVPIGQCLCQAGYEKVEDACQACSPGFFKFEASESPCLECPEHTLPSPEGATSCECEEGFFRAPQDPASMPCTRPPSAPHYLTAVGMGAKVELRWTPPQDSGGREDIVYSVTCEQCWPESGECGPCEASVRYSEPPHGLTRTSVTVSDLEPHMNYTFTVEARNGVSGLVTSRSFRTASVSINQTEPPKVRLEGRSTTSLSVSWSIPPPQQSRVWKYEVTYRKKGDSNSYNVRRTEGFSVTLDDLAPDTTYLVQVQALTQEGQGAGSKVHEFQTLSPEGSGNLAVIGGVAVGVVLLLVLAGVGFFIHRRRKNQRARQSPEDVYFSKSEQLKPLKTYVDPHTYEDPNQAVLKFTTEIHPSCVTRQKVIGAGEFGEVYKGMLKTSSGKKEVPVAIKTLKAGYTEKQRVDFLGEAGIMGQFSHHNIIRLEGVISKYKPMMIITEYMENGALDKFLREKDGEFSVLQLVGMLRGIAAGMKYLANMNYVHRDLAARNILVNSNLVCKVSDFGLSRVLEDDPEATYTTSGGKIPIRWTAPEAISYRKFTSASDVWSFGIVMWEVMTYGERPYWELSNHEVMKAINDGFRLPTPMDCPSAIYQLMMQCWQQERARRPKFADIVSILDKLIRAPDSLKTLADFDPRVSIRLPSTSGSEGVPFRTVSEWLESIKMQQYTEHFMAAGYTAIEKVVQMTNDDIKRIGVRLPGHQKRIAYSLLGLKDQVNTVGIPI

Koff rate compared with EA2 (EphA2-Fc [2]): slower Koff rates than EA2
binding result (EphA2-Fc [6]): binds
B1: Eph099B-208.261 (antibody, V domains shown)
VH: QVQLQQPGAELVKPGASVKLSCKASGYTFTSYWMHWVKQRPGQGLEWIGMIHPNSGSTNYNEKFKSKATLTVDKSSSTAYMRLSSLTSEDSAVYYCARGGNMVGGGYWGQGTTLTVSS
VL: QIVLTQSPALMSASPGEKVTMTCSASSSVSYMYWYQQKPRSSPKPWIYLTTNLASGVPARFSGSGSGTSYSLTISSMEAEDAATYYCQQWSSNPFTFGSGTKLEIR
notes: Mouse (SJL) hybridoma monoclonal antibody, ATCC PTA-4573
EphA2 tyrosine phosphorylation (EphA2 [1]): increased EphA2 phosphorylation; also recorded: promote EphA2 tyrosine phosphorylation in MDA-MB-231 cells
Colony growth / formation in soft agar (MDA-MB-231 tumor cells): inhibited colony growth in soft agar; also recorded: inhibit malignant tumor cell growth in soft agar
Effect on cancer cell colonies already formed in soft agar (cancer cells): can kill cancer cells already growing in colonies in soft agar while other antibodies can slow or reduce cancer cell colony growth in soft agar
Tumor growth, A549 implanted subcutaneously (A549 lung cancer cells): inhibited
Tumor growth, MDA-MB-231 implanted subcutaneously [3]: inhibited; also recorded: inhibit tumor cell growth in vivo
EphA2 protein level (degradation) (EphA2 [4]): decreased EphA2 protein level; also recorded: promote EphA2 degradation in MDA-MB-231 cells
Competition with labeled EA2 for binding to EphA2-Fc (EphA2-Fc [5]): could decrease the amount of labeled EA2 binding to EphA2-Fc; also recorded: can compete with EA2 for binding to EphA2
